In the nanobody polyreactivity screen of Harvey et al. (2022):

test: yeast display, Sf9 membrane polyspecificity reagent, FACS + sequencing; frameworks hold sequencing errors
Procedure, shortened: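 Galactose induction of a Saccharomyces cerevisiae BJ5465 synthetic nanobody display library ran 36–48 hours. The cells were then stained for 1 hour at 4 °C with 10% biotinylated, detergent-solubilized Sf9 membrane reagent, pulled down on streptavidin microbeads and FACS-sorted into low and high (top ~1%) gates on expression and reagent-binding fluorescence. Labels for polyreactivity follow the gate of origin.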

Sequence	polyreactivity (PSR sort gate)
QVQLQESSGGLVQAGGSLRMSCAASGTIFHFHIMGWYRQAPGKESEFVAAISYGTSTYYADSVKGRFTISRDNAKNTVYLQMNSQKPEDSAVNYCAVYDYLEVYCWYWGQGTQVTVSS	low polyreactivity
QVQLVESGGGLVQAGGSLRLSCAASGSTFFSYDMGWYRQAPGKERELVATISTSVGRTYYADSVKGRFTISRDNAKNTVYLLMNSLKPEDTAVYYCNSDSLGYLYNYYWPAYDHWGQGTQVTVSS	low polyreactivity
QVQLVESGGGLVQAGGSLRLSCAASGFTFAVYVMGWYRQAPGKERELVATISISVGSTYYADSVKGRFTISRDNAKNTVYLQMNSLKPEDTAVYYCNADPPPEYYPDKDNYWGQGTQVTVSS	low polyreactivity
QVQLVESGGGLVQAGGSLRLSCAASGIYYNAMGWYRQAPGKERELVAAITTGDRTNYADSVKGRFTISRDNAKNTVYLQMYSLIPEDTAVYYCKAVVERLSSTARDFAYDYWGQGTQVNVSS	low polyreactivity
QVQLEESGGGLVQAGGTLRLSCAACGRTFYRYAMGWYRKAPGKERQLVAAISASGGITYYADSVKGRFTISRDNAKNNVYLQMNSLKADDTAVYYCAVRYNPWYGNYDYWGQGTQVTVSS	high polyreactivity
QVQLVESGGGLVQAGGSLRLSCAASGRIFVNYAMGWYRQAPGKEREFVAGIRVNGGSTYYADSVKGRFTISRDNAKNTVYLQMNSLKPEDTAVYYCAKAYPGTYREYDYWGQGTQVTVSS	high polyreactivity
QVQLVESGGGLVQAGGSLRLSCAASGRIFYGYAMGWYRQAPGKERELVASITVSRTSTYYADSVKGRFTISRDNAKNTVYLQMNSLKPEDTAVYYCAVGDGFEYDWGQGTQVTVSS	low polyreactivity
QVQLVESGGGLVQAGGSLRLSCAASGFTFDYYAMGWYRQAPGKERELVAVITSRGGSTFYADSVKGRFTISRDNAKNTVYLQMNSLKPEDTAVYYCARQHYRLFRPYDYWGQGTQVTVSS	high polyreactivity
QVQLVESGGGLVQAGGSLRLSCAASGRIFIYYAMGWYRQAPGKERELVAAITRGGNTNYADSVKGRFTISRDNAKNTVYLQMNSLKPEDTAVYYCAAAIRYGSRHRGYWGQGTQVTVSS	low polyreactivity
QVQLQESGGGLVQAGGRLRLSCAASGYISTFSSEMGWYRQAPGKERELVASIAPGCTTSYADSVKGRFTISRDYAKNTEFLQMNSLKPEDTAVYYCAVDYTVPASFGYWGQGSQVTVSS	high polyreactivity
QVQLVESGGGLVQAGGSLRLSCAASGSIFSAYAMGWYRQAPGKERELVAAISSRGGSTYYADSVKGRFTISRDNAKNTVYLQMNSLKPEDTAVDYCAARVRHSAYDYWGQGTQVTVSS	high polyreactivity
QVQLVESGGGLVQAGGSLRLSCAASGRILYPYAMGGYRQAPGKERELVAAITFIGGSTYYADSVKGRFTISRDNAKNTVYLQMNSLKPEDTAVYYCNAKPHRPSLLRWRIGNYWGQGTQVTVSS	high polyreactivity
QVQLGESGGGLVQAGGSLRLSCAASGSIFTGNAMGWYRQAPGKERELVAAITNGGITNYADSVKRRFTISRDNAKNTFYLQMNSLKPEDTAVYYCAADYVDFYSFRRFDYWGQGSQVTVSS	low polyreactivity
QVQLVESGGGLVQAGGSLRLSCAAYGRIFSRNAMGWYRQAPGKERELVAAITSSGGSTYYADSVKGRFTISRDNAKNTVYLQMNSLKPEDTAVYYCNAVSRWWPAGFDYWGQGTQVTVSS	high polyreactivity
QVQLVESGGCLVQAGGSLRLSCAASGRTFYTNGMGWYRQAPGKEREFVAGITYRGGGTYYADSVKGRFTISRDNAQNTVYLQMNSLKPEDTAVYYCAARYYRDYRWYTYAYDYWGQGTQVTVSS	high polyreactivity
QVQLVESGGGLVQAGGSLRLSCAASGRTFSLYAMGWSRPAPGKERELVAAITRRGGSTYYADSVKGRFTMSRDNAKNTVYLQMNSLKPEDTAVYYCAADSGYPWELDYWGQGTEVTVSS	low polyreactivity
QVQLVESGGGLVQAGGSLRLSCAASGSTFLYYDMGWYRQAPGKERELVADITWSGSGTYYADSVKGRFTISRDNAKNTVYLQMNSLKPEDTAVYYCAADDTWRGDQYFYSYDYWGQGTQVTVSS	low polyreactivity
QVQLVESGGGLVQAGGSLRLSCAASGRTFFPNAMGWYRPAPAKERELVAAITNGDSTHYADSVKGRFTISRDNAKNTVYLQMNSLKPEDTAVYYCAAEDHYEGYGGYYWGQGTQVTVSS	low polyreactivity
QVQLVESGGGLVQAGGSLRLSCAASGSTFYPYAMGWYRQAPGKERELVAAINWSGGTTYYADSVKGRFTLSRDNAKNTVYLQMNSLKPEDTAVYYCAAVGYPPGYGYWGQGTQVTVSS	low polyreactivity
QVQLVESGGGLVQAGGSLRLSCAASGRTFSYYTMGWYRQAPGKERELVAAITSSGGSTYYADSVKGRFTISRDNAKNTVYLQMNSLKPEDTAVYYCAVLNYWAMDYWGQGTQVTVSS	high polyreactivity
QVQLVESGGGLVQAGGSLRLSCAASGFTFIYYAMGWYRQAPGKERELVAAISSRTGRTYYADSVKGRFTISRDNAKNTVYLQMNSLKPEDTAVYYCNADRNWRSGKFNYWGQGTQVTVSS	high polyreactivity
QVQLVESGGGLVQAGGSLRLSCAASGRIFYSYAMGWYRQAPGKERELVAAISSRTGSTYYADSVKGRFTISRDNAKNTVYLQMNSLKPEDTAVYYCAAQSGWLRYYYWGQGTLVTVSS	high polyreactivity
QVQLVESGGGLVQAGGSLRLSCAASGFTFYKNAMGWYRQAPGKERELVATISSGGSTYYADSVKGRFTISRYNAKNTVYLQLNSLKPEDTAVYYCAARVHHGYYSISYYYWGQGTQVTVSS	high polyreactivity
QAELVESGGGLVQAGGSLRLSSAASGIIFDVYAMGWYRQAPGKERELVASIRWRGGSTYYADSVKGRFTISRDNAKNTVFLQMNSLKPEDTAVYYCAADLTRWYGRTYNYWGQGTQVTVSS	high polyreactivity
QVLMQESGGGLVQAGGSLRLSCAASGNIFSAGGMGWYRQAPVNERELVAGIGTATSTNYADSVKGRFTFSRDNAKNTVYLQMNSLKREDTAVYYCAAAYYSGLSHWYWGQGTQVTVSS	low polyreactivity
QVQLVESGGGLVQAGGSLRLSCAASGNTFTRNAMGWYRQAPGKERELVAAISYSGGSTYYADSVKGRFTISRDNAKNTVYLQMNSLKPEDTAVYYCATKYYDRFSPYRGDYWGQGTQVTVSS	low polyreactivity
QVQLVESGGGLVQAGGSLRLSCAASGSIFYLYAMGWYRQAPGKERELVASIRWSGGNTYYADSVKGRFTISRDNAKNTVYLQMNSLKPEDTAVYYCAARTSTHGSSYSIRRFGYWGQGTQVTVSS	high polyreactivity
QVQLVESGGGLVQAGGSLRLSCAASGRIFARYAMRMYRQAPEKERELVDYINSGDNTYYADSVKWRFTISRDNAKNTVYLQMNSLKPDATAVYYCAAVVGRRQSSSSRFEYDYWGQGTQVTVSS	low polyreactivity
QVQLVESGGGLVQAGGSLRLSCAASGRTFRYYVMGWYRPATGTERELVAGISGSGGNTYYADSVKGRFTISRDNAKNTVYLQMNSLKPEDTAVYYCNAYSPYAEYDYWGQGTQVTVSS	high polyreactivity
QVQLVESGGGLVQAGGSLRLSSAASGNIFKSYTMGWYRQAPGKERELVAAITSGGRTNYGDSVKGRFTISRDNAKNTVYLQMNSLKPEDTAVYYCNAYKVFWVSIRYKFDYWGQGTQVTVSS	high polyreactivity
